{"source": "patent US20160220655A1", "about": "(BOARD OF REGENTS FOR OKLAHOMA STATE UNIVERSITY, published 2016)", "target": "T1, SipB (recombinant, His-tag technology, expressed in E. coli) (Salmonella, UniProt Q56019 1-593)", "T1 construct": "also called first 'translocator' protein SipB from SPI-1", "T1 sequence": "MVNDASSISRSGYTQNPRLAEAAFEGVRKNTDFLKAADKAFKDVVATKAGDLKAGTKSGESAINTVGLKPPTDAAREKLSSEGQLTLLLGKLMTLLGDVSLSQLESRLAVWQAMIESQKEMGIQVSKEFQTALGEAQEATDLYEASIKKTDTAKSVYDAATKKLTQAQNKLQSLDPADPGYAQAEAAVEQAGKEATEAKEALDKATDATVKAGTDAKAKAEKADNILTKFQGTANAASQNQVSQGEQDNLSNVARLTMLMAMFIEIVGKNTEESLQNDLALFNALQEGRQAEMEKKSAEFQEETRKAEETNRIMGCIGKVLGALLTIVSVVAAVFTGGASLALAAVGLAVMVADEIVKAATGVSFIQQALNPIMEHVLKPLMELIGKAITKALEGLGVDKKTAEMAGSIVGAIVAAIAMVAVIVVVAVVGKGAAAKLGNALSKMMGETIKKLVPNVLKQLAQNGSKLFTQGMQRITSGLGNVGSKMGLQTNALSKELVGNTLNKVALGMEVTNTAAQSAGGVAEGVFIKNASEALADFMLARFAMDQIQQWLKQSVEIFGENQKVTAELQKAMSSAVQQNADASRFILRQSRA", "test": "co-expression in E. coli and co-purification by column chromatography"}
{"binder": "SicA, cognate chaperone of SipB (other) MDYQNNVSEERVAEMIWDAVSEGATLKDVHGIPQDMMDGLYAHAYEFYNQGRLDEAETFFRFLCIYDFYNPDYTMGLAAVCQLKKQFQKACDLYAVAFTLLKNDYRPVFFTGQCQLLMRKAAKARQCFELVNERTEDESLRAKALVYLEALKTAETEQHSEQEKE", "values": [{"measurement": "binding result", "value": "binds"}]}
